Test results taken from paper PMC10912661 (Scientific Reports, 2024).

What was measured:
Conditions in all cases: both partners purified
[1] = target: T1, β-chain of human hemoglobin (in the Hb tetramer of the crystal) (human, UniProt P68871 1-147); assay: crystal structure
T1 construct: also called β-chain of Hb; chain ß; source: purified from human blood of a single healthy donor, as part of Hb

[2] = target: human hemoglobin purified from donor blood (carboxyhemoglobin form, for crystallography) (human, UniProt P69905 1-142; P68871 1-147); assay: crystal structure
Sequence of human hemoglobin purified from donor blood (carboxyhemoglobin form, for crystallography) (P69905 whole entry, chain 1 of 2): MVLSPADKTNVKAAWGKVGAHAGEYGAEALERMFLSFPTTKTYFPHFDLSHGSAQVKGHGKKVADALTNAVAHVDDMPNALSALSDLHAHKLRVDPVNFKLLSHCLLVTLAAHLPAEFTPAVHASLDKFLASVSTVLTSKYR
Sequence of human hemoglobin purified from donor blood (carboxyhemoglobin form, for crystallography) (P68871 whole entry, chain 2 of 2): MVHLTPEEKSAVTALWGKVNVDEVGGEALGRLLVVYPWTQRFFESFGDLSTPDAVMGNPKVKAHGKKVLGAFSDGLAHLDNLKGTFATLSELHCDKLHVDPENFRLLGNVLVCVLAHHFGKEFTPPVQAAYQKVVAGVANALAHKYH

[3] = target: T2, human hemoglobin (bought powder, gel-filtered, for in vitro assays) (human, UniProt P69905 1-142; P68871 1-147); assay: SPR
T2 sequence (P69905 whole entry, chain 1 of 2): as the sequence (P69905 whole entry, chain 1 of 2) above
T2 sequence (P68871 whole entry, chain 2 of 2): as the sequence (P68871 whole entry, chain 2 of 2) above

[4] = target: T2, human hemoglobin (bought powder, …); assay: SPR; remark: listed apart in the source

T1 sequence (P68871 whole entry): as the sequence (P68871 whole entry, chain 2 of 2) above

B1: hemoglobin-interacting domain 2 (HID2) of Shr, residues 169-294, wild type (domain or fragment)
chain: SGKNTANLSLITKLSQEDGAILFPEIDRYSDNKQIKALTQQITKVTVNGTVYKDLISDSVKDTNGWVSNMTGLHLGTKAFKDGENTIVISSKGFEDVTITVTKKDGQIHFVSAKQKQHVTAEDRQS
notes: also called WT; WT HID2; source: E. coli BL21(DE3), pET28b, purified (Ni-NTA, TEV cleavage, second Ni column, SEC Superdex-75)
binding result [1]: binds
stoichiometry N [2]: 3 HID2 per Hb tetramer
Kd [3]: 25 µM
Kd [4]: 22 ± 0.12 µM
koff [4]: 0.65 ± 0.025 s⁻¹
kon [4]: 30000 ± 160 M⁻¹ s⁻¹
